B1: Arabidopsis thaliana RidA, construct starting from S68 (AtRidA-S68), wild type [Arabidopsis thaliana] / itself (parent)
chain: STEKAPAALGPYSQAIKANNLVFLSGVLGLIPETGKFVSESVEDQTEQVLKNMGEILKASGADYSSVVKTTIMLADLADFKTVNEIYAKYFPAPSPARSTYQVAALPLNAKIEIECIATL

Variants of: B1
Assay: size-exclusion chromatography (Superdex-75)
Conditions: with itself; 0.5 mg protein loaded; read off a plot

| Variant | screen value [mL] |
| --- | --- |
| chain 1 E115A | 11.6 |
| chain 1 K69R | 11.4 |
| chain 1 K69A | 12 |

Other lines, results leading:

| screen value [mL] | Variant |
| --- | --- |
| 11.6 | chain 1 S99A |
| 11.4 | chain 1 S13A |

From PMC4960622, “Crystal structures of RidA, an important enzyme for the prevention of toxic side products” (Scientific Reports, 2016)
